Results reported in paper PMC10092650.
Read-outs that look alike come from different tables or passages of the source. One block for each substance: values may come before it.

What was measured:
[1] = target: doubly stabilized microtubules (GMPCPP and paclitaxel) (UniProt Q6B856); assay: co-sedimentation
[2] = target: X-rhodamine-labeled dynamic microtubules nucleated from GMPCPP-stabilized Cy5 MT seeds (UniProt Q6B856); assay: dynamic MT seed assay
[3] = target: GMPCPP-stabilized HyLite 647/biotin-labeled microtubules (bovine) (UniProt Q6B856); assay: single-molecule TIRF microscopy
[4] = target: GMPCPP-stabilized HyLite 647/biotin-labeled microtubules (bovine) (UniProt Q6B856); assay: single-molecule TIRF microscopy; remark: listed apart in the source
[5] = target: doubly stabilized microtubules (GMPCPP and paclitaxel) (UniProt Q6B856); assay: co-sedimentation; remark: listed apart in the source

percent pelleted with MTs [1]: > 90%
percent of two-sided MTs with GFP-Kif18B binding events, with importin α/β [2]: 73%
percent of two-sided MTs with bound GFP-Kif18B [2]: 46%
dwell time at MT plus ends [3]: 5.39 s
mean dwell time on the MT lattice [3]: 2.3 s
dwell time at MT plus ends [4]: 5.56 s
mean dwell time on the MT lattice [4]: 1.77 s
percent pelleted with MTs [5]: 79%
Substance: GFP-Kif18B (full-length human Kif18B N-terminally tagged with EGFP) (from UniProt Q86Y91-6 1-833) (natural protein)

fold increase in the Kd for MTs with importin α/β against without [1]: 9 fold
Substance: YPet-Kif18B(605-828)-His6 (from UniProt Q86Y91-6 605-828) (domain or fragment)

fold increase in the Kd for MT binding relative to YPet-Kif18B(605-828) [1]: 2 fold
Substance: YPet-Kif18B(605-828)-NLS1/2 (from UniProt Q86Y91-6 605-828) (domain or fragment)
